Measurements taken from article PMC6760808.
Read-outs that look alike come from different tables or passages of the source.

Assays:
Cer-NPHP4-YC [1] = biological target: Cer-NPHP4-YC (UniProt O75161); assay: split reporter (BiFC, NanoBiT); BiFC: Cer-NPHP-YC co-expressed with YN-myc-Nup in NIH 3T3 cells in serum-free medium; fixed 48 hours post-transfection; YFP fluorescence at the base of the primary cilium, cells counted across two independent experiments
Cer-NPHP4-YC [2] = biological target: Cer-NPHP4-YC (UniProt O75161); assay: as above; remark: listed apart in the source

UniProt O75161, sequence (O75161 whole entry): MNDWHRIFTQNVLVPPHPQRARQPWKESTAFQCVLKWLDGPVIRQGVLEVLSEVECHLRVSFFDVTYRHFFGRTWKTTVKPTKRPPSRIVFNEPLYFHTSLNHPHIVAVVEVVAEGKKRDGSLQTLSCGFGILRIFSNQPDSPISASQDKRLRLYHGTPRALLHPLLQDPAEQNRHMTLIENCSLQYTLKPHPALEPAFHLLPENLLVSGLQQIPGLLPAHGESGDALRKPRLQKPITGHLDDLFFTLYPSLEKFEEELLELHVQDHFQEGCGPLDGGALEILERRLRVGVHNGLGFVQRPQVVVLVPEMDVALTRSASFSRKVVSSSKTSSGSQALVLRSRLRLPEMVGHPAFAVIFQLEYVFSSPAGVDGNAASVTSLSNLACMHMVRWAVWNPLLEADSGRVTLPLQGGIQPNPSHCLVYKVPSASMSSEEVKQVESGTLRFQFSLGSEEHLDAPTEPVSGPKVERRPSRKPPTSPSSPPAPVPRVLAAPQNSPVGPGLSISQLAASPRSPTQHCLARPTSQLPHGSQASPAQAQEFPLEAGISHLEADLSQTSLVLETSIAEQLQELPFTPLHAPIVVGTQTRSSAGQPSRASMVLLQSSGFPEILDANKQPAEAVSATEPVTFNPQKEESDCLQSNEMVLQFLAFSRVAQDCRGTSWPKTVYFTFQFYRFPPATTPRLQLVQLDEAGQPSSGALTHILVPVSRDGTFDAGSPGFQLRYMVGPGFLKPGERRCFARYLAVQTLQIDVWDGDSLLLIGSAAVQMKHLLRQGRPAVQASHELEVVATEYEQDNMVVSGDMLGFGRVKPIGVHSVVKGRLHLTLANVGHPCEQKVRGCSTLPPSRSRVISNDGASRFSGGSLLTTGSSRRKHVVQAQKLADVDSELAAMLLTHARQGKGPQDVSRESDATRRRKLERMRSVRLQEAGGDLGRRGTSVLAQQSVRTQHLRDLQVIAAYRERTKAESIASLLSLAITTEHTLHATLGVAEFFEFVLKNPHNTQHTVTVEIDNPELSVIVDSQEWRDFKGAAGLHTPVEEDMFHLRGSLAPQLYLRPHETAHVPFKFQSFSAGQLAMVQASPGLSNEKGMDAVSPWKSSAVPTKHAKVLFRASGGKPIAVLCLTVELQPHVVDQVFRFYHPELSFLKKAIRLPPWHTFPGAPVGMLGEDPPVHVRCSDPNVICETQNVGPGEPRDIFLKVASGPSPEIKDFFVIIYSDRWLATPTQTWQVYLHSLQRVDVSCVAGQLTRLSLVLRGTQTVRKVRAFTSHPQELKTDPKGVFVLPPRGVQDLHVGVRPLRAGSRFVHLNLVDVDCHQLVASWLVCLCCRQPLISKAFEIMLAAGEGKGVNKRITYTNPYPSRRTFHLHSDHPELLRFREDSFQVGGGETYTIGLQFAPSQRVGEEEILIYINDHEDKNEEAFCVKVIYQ

cells with BiFC signal (Cer-NPHP4-YC [1]): 4 of 30 cells
cells with BiFC signal (Cer-NPHP4-YC [2]): 4 of 35 cells
Substance: YN-myc-Nup35 (from UniProt Q8NFH5 1-326) (natural protein)
